Reference: article PMC8796304 (ACS Central Science, 2021)
Substitutions are numbered along the chain they refer to. Ends that are not written are not given here.

Experiments:
[1] = molecular target: T1, Frizzled-7/Fc chimera protein (Homo sapiens, UniProt O75084); assay: ELISA
[2] = molecular target: human Frizzled-7 on Fzd7+myc+ CHO cells (Homo sapiens, UniProt O75084); assay: flow cytometry on cells
[3] = molecular target: T2, GPI-anchored myc peptide tag (Homo sapiens c-Myc epitope tag, UniProt P01106, also: GPI anchor); assay: flow cytometry on cells
T2 chain: EQKLISEEDL

[4] = molecular target: Frizzled 2 extracellular domain (Homo sapiens (assumed), UniProt Q14332); assay: ELISA
Sequence of Frizzled 2 extracellular domain (Q14332 whole entry, looked up, the tested form may be a part): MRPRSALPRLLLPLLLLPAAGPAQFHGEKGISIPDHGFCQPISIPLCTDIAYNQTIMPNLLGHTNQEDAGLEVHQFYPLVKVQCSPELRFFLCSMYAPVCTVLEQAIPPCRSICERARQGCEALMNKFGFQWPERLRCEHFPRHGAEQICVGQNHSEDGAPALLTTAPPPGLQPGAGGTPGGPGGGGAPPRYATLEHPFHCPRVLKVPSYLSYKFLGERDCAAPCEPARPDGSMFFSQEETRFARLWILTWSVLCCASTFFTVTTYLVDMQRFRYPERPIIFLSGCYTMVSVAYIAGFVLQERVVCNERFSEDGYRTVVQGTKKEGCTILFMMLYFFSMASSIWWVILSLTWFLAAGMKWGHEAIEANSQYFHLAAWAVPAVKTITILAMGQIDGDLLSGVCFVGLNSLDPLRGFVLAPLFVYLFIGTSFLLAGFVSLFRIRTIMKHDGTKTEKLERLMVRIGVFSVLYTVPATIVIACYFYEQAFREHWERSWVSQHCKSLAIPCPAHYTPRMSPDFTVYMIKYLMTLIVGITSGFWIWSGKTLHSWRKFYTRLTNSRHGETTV

[5] = molecular target: Frizzled 1 extracellular domain (Homo sapiens (assumed), UniProt Q9UP38); assay: ELISA
Sequence of Frizzled 1 extracellular domain (Q9UP38 whole entry, looked up, the tested form may be a part): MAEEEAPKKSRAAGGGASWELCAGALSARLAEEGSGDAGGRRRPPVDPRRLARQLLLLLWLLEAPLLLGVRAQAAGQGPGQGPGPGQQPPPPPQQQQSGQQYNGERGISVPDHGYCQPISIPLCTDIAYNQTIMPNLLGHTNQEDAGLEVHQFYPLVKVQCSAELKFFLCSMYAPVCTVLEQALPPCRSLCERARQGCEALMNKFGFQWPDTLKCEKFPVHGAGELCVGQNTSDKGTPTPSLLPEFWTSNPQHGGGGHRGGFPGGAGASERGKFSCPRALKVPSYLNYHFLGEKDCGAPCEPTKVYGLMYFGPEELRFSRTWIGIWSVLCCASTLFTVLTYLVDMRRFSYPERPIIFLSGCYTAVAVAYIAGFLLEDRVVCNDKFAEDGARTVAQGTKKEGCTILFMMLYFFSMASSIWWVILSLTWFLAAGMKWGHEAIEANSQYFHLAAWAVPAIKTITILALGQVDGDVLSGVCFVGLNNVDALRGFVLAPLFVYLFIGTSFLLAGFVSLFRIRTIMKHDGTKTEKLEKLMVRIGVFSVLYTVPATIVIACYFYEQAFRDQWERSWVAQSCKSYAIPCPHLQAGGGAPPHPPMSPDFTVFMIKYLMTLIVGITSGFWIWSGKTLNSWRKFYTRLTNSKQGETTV

[6] = molecular target: T1, Frizzled-7/Fc chimera protein; assay: BLI

B1: ML7 (antibody, V domains shown)
VH: EVQLVESGGGLVQPGGSLRLSCAASGFNIYYYSMHWVRQAPGKGLEWVASISSYYGYTYYADSVKGRFTISADTSKNTAYLQMNSLRAEDTAVYYCARSWGYGGSSSYALDYWGQGTLVTVSS
VL: DIQMTQSPSSLSASVGDRVTITCRASQSVSSAVAWYQQKPGKAPKLLIYSASSLYSGVPSRFSGSRSGTDFTLTISSLQPEDFATYYCQQVGGGPITFGQGTKVEIK
For B1, the EC50 [1] was less than 10 nM, the EC50 [2] was less than 10 nM and the binding result [3] was “no binding (tested: 50 nM)”. The binding result [4] was “binds”, the binding result [5] was “binds” and the Kd [6] was 0.448 ± 0.053 nM.

B2: ML9 (antibody, V domains shown)
VH: B1 VH
VL: DIQMTQSPSSLSASVGDRVTITCRASQSVSSAVAWYQQKPGKAPKLLIYSASSLYSGVPSRFSGSRSGTDFTLTISSLQPEDFATYYCQQGWWGYYSLITFGQGTKVEIK
With B2 the binding result [3] was “no binding (tested: 50 nM)” and the Kd [6] was 0.292 ± 0.066 nM.

B3: ML8 (antibody, V domains shown)
VH: B1 VH
VL: B2 VL with G91Y, W92A, W93Y, G94P, Y95V, S97F
For B3, the EC50 [1] was less than 10 nM, the EC50 [2] was less than 10 nM and the binding result [3] was “no binding (tested: 50 nM)”. For the same binder, the Kd [6] was 4.98 ± 0.28 nM.
